Among the data in patent US20260015399A1 (Boehringer Ingelheim, published 2026) are Ki values, retold here.

T1: human NPY2 receptor (human, UniProt P49146 1-381)
T1 construct: whole, on cells; also called hNPY2-R; hNPY2R
T1 sequence (looked up): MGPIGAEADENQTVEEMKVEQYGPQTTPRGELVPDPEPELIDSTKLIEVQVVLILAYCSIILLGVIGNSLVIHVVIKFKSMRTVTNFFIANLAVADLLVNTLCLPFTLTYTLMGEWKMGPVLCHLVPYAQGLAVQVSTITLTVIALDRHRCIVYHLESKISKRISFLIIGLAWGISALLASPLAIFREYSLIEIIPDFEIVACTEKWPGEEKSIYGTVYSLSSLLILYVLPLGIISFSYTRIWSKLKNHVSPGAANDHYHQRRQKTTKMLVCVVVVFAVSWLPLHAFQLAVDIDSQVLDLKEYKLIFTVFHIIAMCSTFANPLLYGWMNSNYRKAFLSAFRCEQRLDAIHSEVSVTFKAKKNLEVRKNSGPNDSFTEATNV

B1: Compound 95 (peptide)
peptide: Isovaleryl-APEK([Ahx-γGlu-C18 diacid])PEEDATPEELQAYYVSLRHYYNWLTRQRY-NH2
SMILES: CC(C)CC(=O)N[C@@H](C)C(=O)N1CCC[C@H]1C(=O)N[C@@H](CCC(=O)O)C(=O)N[C@@H](CCCCNC(=O)CCCCCNC(=O)CC[C@H](NC(=O)CCCCCCCCCCCCCCCCC(=O)O)C(=O)O)C(=O)N1CCC[C@H]1C(=O)N[C@@H](CCC(=O)O)C(=O)N[C@@H](CCC(=O)O)C(=O)N[C@@H](CC(=O)O)C(=O)N[C@@H](C)C(=O)N[C@H](C(=O)N1CCC[C@H]1C(=O)N[C@@H](CCC(=O)O)C(=O)N[C@@H](CCC(=O)O)C(=O)N[C@@H](CC(C)C)C(=O)N[C@@H](CCC(N)=O)C(=O)N[C@@H](C)C(=O)N[C@@H](Cc1ccc(O)cc1)C(=O)N[C@@H](Cc1ccc(O)cc1)C(=O)N[C@H](C(=O)N[C@@H](CO)C(=O)N[C@@H](CC(C)C)C(=O)N[C@@H](CCCNC(=N)N)C(=O)N[C@@H](Cc1c[nH]cn1)C(=O)N[C@@H](Cc1ccc(O)cc1)C(=O)N[C@@H](Cc1ccc(O)cc1)C(=O)N[C@@H](CC(N)=O)C(=O)N[C@@H](Cc1c[nH]c2ccccc12)C(=O)N[C@@H](CC(C)C)C(=O)N[C@H](C(=O)N[C@@H](CCCNC(=N)N)C(=O)N[C@@H](CCC(N)=O)C(=O)N[C@@H](CCCNC(=N)N)C(=O)N[C@@H](Cc1ccc(O)cc1)C(N)=O)[C@@H](C)O)C(C)C)[C@@H](C)O
B2: Compound 96 (peptide)
peptide: Isovaleryl-APEK([Ahx-γGlu-C18 diacid])PEESATPEELQRYYVSLRHYYNWLTRQRY-NH2
SMILES: CC(C)CC(=O)N[C@@H](C)C(=O)N1CCC[C@H]1C(=O)N[C@@H](CCC(=O)O)C(=O)N[C@@H](CCCCNC(=O)CCCCCNC(=O)CC[C@H](NC(=O)CCCCCCCCCCCCCCCCC(=O)O)C(=O)O)C(=O)N1CCC[C@H]1C(=O)N[C@@H](CCC(=O)O)C(=O)N[C@@H](CCC(=O)O)C(=O)N[C@@H](CO)C(=O)N[C@@H](C)C(=O)N[C@H](C(=O)N1CCC[C@H]1C(=O)N[C@@H](CCC(=O)O)C(=O)N[C@@H](CCC(=O)O)C(=O)N[C@@H](CC(C)C)C(=O)N[C@@H](CCC(N)=O)C(=O)N[C@@H](CCCNC(=N)N)C(=O)N[C@@H](Cc1ccc(O)cc1)C(=O)N[C@@H](Cc1ccc(O)cc1)C(=O)N[C@H](C(=O)N[C@@H](CO)C(=O)N[C@@H](CC(C)C)C(=O)N[C@@H](CCCNC(=N)N)C(=O)N[C@@H](Cc1c[nH]cn1)C(=O)N[C@@H](Cc1ccc(O)cc1)C(=O)N[C@@H](Cc1ccc(O)cc1)C(=O)N[C@@H](CC(N)=O)C(=O)N[C@@H](Cc1c[nH]c2ccccc12)C(=O)N[C@@H](CC(C)C)C(=O)N[C@H](C(=O)N[C@@H](CCCNC(=N)N)C(=O)N[C@@H](CCC(N)=O)C(=O)N[C@@H](CCCNC(=N)N)C(=O)N[C@@H](Cc1ccc(O)cc1)C(N)=O)[C@@H](C)O)C(C)C)[C@@H](C)O
B3: Compound 100 (peptide)
peptide: Isovaleryl-APEK([Ahx-γGlu-C18 diacid])PEADATPEELQRYYIALRHYYNWLTRQRY-NH2
SMILES: CC[C@H](C)[C@H](NC(=O)[C@H](Cc1ccc(O)cc1)NC(=O)[C@H](Cc1ccc(O)cc1)NC(=O)[C@H](CCCNC(=N)N)NC(=O)[C@H](CCC(N)=O)NC(=O)[C@H](CC(C)C)NC(=O)[C@H](CCC(=O)O)NC(=O)[C@H](CCC(=O)O)NC(=O)[C@@H]1CCCN1C(=O)[C@@H](NC(=O)[C@H](C)NC(=O)[C@H](CC(=O)O)NC(=O)[C@H](C)NC(=O)[C@H](CCC(=O)O)NC(=O)[C@@H]1CCCN1C(=O)[C@H](CCCCNC(=O)CCCCCNC(=O)CC[C@H](NC(=O)CCCCCCCCCCCCCCCCC(=O)O)C(=O)O)NC(=O)[C@H](CCC(=O)O)NC(=O)[C@@H]1CCCN1C(=O)[C@H](C)NC(=O)CC(C)C)[C@@H](C)O)C(=O)N[C@@H](C)C(=O)N[C@@H](CC(C)C)C(=O)N[C@@H](CCCNC(=N)N)C(=O)N[C@@H](Cc1c[nH]cn1)C(=O)N[C@@H](Cc1ccc(O)cc1)C(=O)N[C@@H](Cc1ccc(O)cc1)C(=O)N[C@@H](CC(N)=O)C(=O)N[C@@H](Cc1c[nH]c2ccccc12)C(=O)N[C@@H](CC(C)C)C(=O)N[C@H](C(=O)N[C@@H](CCCNC(=N)N)C(=O)N[C@@H](CCC(N)=O)C(=O)N[C@@H](CCCNC(=N)N)C(=O)N[C@@H](Cc1ccc(O)cc1)C(N)=O)[C@@H](C)O
B4: Compound 105 (peptide)
peptide: Isovaleryl-APEK([Ahx-γGlu-C18 diacid])PEEDATQEELQRYYVSLRHYYNWLTRQRY-NH2
SMILES: CC(C)CC(=O)N[C@@H](C)C(=O)N1CCC[C@H]1C(=O)N[C@@H](CCC(=O)O)C(=O)N[C@@H](CCCCNC(=O)CCCCCNC(=O)CC[C@H](NC(=O)CCCCCCCCCCCCCCCCC(=O)O)C(=O)O)C(=O)N1CCC[C@H]1C(=O)N[C@@H](CCC(=O)O)C(=O)N[C@@H](CCC(=O)O)C(=O)N[C@@H](CC(=O)O)C(=O)N[C@@H](C)C(=O)N[C@H](C(=O)N[C@@H](CCC(N)=O)C(=O)N[C@@H](CCC(=O)O)C(=O)N[C@@H](CCC(=O)O)C(=O)N[C@@H](CC(C)C)C(=O)N[C@@H](CCC(N)=O)C(=O)N[C@@H](CCCNC(=N)N)C(=O)N[C@@H](Cc1ccc(O)cc1)C(=O)N[C@@H](Cc1ccc(O)cc1)C(=O)N[C@H](C(=O)N[C@@H](CO)C(=O)N[C@@H](CC(C)C)C(=O)N[C@@H](CCCNC(=N)N)C(=O)N[C@@H](Cc1c[nH]cn1)C(=O)N[C@@H](Cc1ccc(O)cc1)C(=O)N[C@@H](Cc1ccc(O)cc1)C(=O)N[C@@H](CC(N)=O)C(=O)N[C@@H](Cc1c[nH]c2ccccc12)C(=O)N[C@@H](CC(C)C)C(=O)N[C@H](C(=O)N[C@@H](CCCNC(=N)N)C(=O)N[C@@H](CCC(N)=O)C(=O)N[C@@H](CCCNC(=N)N)C(=O)N[C@@H](Cc1ccc(O)cc1)C(N)=O)[C@@H](C)O)C(C)C)[C@@H](C)O
B5: Compound 97 (peptide)
peptide: Isovaleryl-APEK([Ahx-γGlu-C18 diacid])PEEDATPEEIQRYYLSLRHYYNWLTRQRY-NH2
SMILES: CC[C@H](C)[C@H](NC(=O)[C@H](CCC(=O)O)NC(=O)[C@H](CCC(=O)O)NC(=O)[C@@H]1CCCN1C(=O)[C@@H](NC(=O)[C@H](C)NC(=O)[C@H](CC(=O)O)NC(=O)[C@H](CCC(=O)O)NC(=O)[C@H](CCC(=O)O)NC(=O)[C@@H]1CCCN1C(=O)[C@H](CCCCNC(=O)CCCCCNC(=O)CC[C@H](NC(=O)CCCCCCCCCCCCCCCCC(=O)O)C(=O)O)NC(=O)[C@H](CCC(=O)O)NC(=O)[C@@H]1CCCN1C(=O)[C@H](C)NC(=O)CC(C)C)[C@@H](C)O)C(=O)N[C@@H](CCC(N)=O)C(=O)N[C@@H](CCCNC(=N)N)C(=O)N[C@@H](Cc1ccc(O)cc1)C(=O)N[C@@H](Cc1ccc(O)cc1)C(=O)N[C@@H](CC(C)C)C(=O)N[C@@H](CO)C(=O)N[C@@H](CC(C)C)C(=O)N[C@@H](CCCNC(=N)N)C(=O)N[C@@H](Cc1c[nH]cn1)C(=O)N[C@@H](Cc1ccc(O)cc1)C(=O)N[C@@H](Cc1ccc(O)cc1)C(=O)N[C@@H](CC(N)=O)C(=O)N[C@@H](Cc1c[nH]c2ccccc12)C(=O)N[C@@H](CC(C)C)C(=O)N[C@H](C(=O)N[C@@H](CCCNC(=N)N)C(=O)N[C@@H](CCC(N)=O)C(=O)N[C@@H](CCCNC(=N)N)C(=O)N[C@@H](Cc1ccc(O)cc1)C(N)=O)[C@@H](C)O
B6: Compound 102 (peptide)
peptide: Isovaleryl-APEK([Ahx-γGlu-C18 diacid])PEEDATLEELQRYYVSLRHYYNWLTRQRY-NH2
SMILES: CC(C)CC(=O)N[C@@H](C)C(=O)N1CCC[C@H]1C(=O)N[C@@H](CCC(=O)O)C(=O)N[C@@H](CCCCNC(=O)CCCCCNC(=O)CC[C@H](NC(=O)CCCCCCCCCCCCCCCCC(=O)O)C(=O)O)C(=O)N1CCC[C@H]1C(=O)N[C@@H](CCC(=O)O)C(=O)N[C@@H](CCC(=O)O)C(=O)N[C@@H](CC(=O)O)C(=O)N[C@@H](C)C(=O)N[C@H](C(=O)N[C@@H](CC(C)C)C(=O)N[C@@H](CCC(=O)O)C(=O)N[C@@H](CCC(=O)O)C(=O)N[C@@H](CC(C)C)C(=O)N[C@@H](CCC(N)=O)C(=O)N[C@@H](CCCNC(=N)N)C(=O)N[C@@H](Cc1ccc(O)cc1)C(=O)N[C@@H](Cc1ccc(O)cc1)C(=O)N[C@H](C(=O)N[C@@H](CO)C(=O)N[C@@H](CC(C)C)C(=O)N[C@@H](CCCNC(=N)N)C(=O)N[C@@H](Cc1c[nH]cn1)C(=O)N[C@@H](Cc1ccc(O)cc1)C(=O)N[C@@H](Cc1ccc(O)cc1)C(=O)N[C@@H](CC(N)=O)C(=O)N[C@@H](Cc1c[nH]c2ccccc12)C(=O)N[C@@H](CC(C)C)C(=O)N[C@H](C(=O)N[C@@H](CCCNC(=N)N)C(=O)N[C@@H](CCC(N)=O)C(=O)N[C@@H](CCCNC(=N)N)C(=O)N[C@@H](Cc1ccc(O)cc1)C(N)=O)[C@@H](C)O)C(C)C)[C@@H](C)O

*1 amine or outer side, *2 acyl side, *3 side chain or, on linkers, in order; H or OH if unused. Side-chain parts run from the residue outwards. The star is where a group is joined. C18 diacid = O=C(O)CCCCCCCCCCCCCCCCC(=O)*; γGlu = O=C(O)[C@H](CCC(=O)[*:2])N[*:1]; Isovaleryl = CC(C)CC(=O)*; Ahx = NCCCCCC(=O)O

In the assay the target is T1, human NPY2 receptor. Description: RLB: displacement of 125I-PYY(1-36) from hNPY2R membranes. A general note: In a radioligand displacement assay an active substance lowers the binding of a labelled ligand.
As a reminder, the Ki is a dissociation constant, usually derived from enzyme kinetics or from competition with a known ligand. High values mean weaker binding, low ones tighter binding. As to B1, affinity was put at a Ki of 2.92 nM.
Under B2 stands 3.06 nM; under B3, 1.01 nM; under B4, 5.97 nM.
The molecule B5 displayed a Ki of 4.23 nM.
B6 returned an inhibition constant (Ki) of 7.15 nM.
